94 variants from the supplement of paper PMC10567573 can be followed below.

B1: PTPN9 (parent)
chain: ILFSLPPALDWDSVHVPGPHAMTI
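Also: lentivirally expressed fusions sorted by FACS into six bins by GFP to DsRed ratio, PSI derived from sequencing read proportions per bin multiplied by bin number.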

Variants of B1 are the subject of this data set. In words: protein stability index of a GFP-peptide fusion (GPS, HEK-293T) (PSI 1-6); higher = more stable. The following applies: c terminus: a fixed tail appended.
With ILFSLPPAGDWDSVHVPGPHAMTI [L9G], the protein stability index worked out at 3.71.
Next, ILFSLPPAADWDSVHVPGPHAMTI [L9A]: 2.29; ILFSLPPAKDWDSVHVPGPHAMTI [L9K]: 2.63.
With ILFSLPPACDWDSVHVPGPHAMTI [L9C], the protein stability index amounted to 2.52.
Next, ILFSLPPAEDWDSVHVPGPHAMTI [L9E]: 1.93.
The result for ILFSLPPARDWDSVHVPGPHAMTI [L9R] reads 2.07; that for ILFSLPPAWDWDSVHVPGPHAMTI [L9W], 4.62; that for ILFSLPPAYDWDSVHVPGPHAMTI [L9Y], 4.25.
Next, ILFSLPPAMDWDSVHVPGPHAMTI [L9M]: 2.52; ILFSLPPATDWDSVHVPGPHAMTI [L9T]: 3.24.
For the variant ILFSLPPASDWDSVHVPGPHAMTI [L9S], the protein stability index was determined as 3.08.
Next, ILFSLPPANDWDSVHVPGPHAMTI [L9N]: 2.8; ILFSLPPADDWDSVHVPGPHAMTI [L9D]: 1.83.
Regarding ILFSLPPAIDWDSVHVPGPHAMTI [L9I], the protein stability index is 1.96.
Next, ILFSLPPAFDWDSVHVPGPHAMTI [L9F]: 2.33; ILFSLPPNLDWDSVHVPGPHAMTI [A8N]: 2.04.
The result for ILFSLPPWLDWDSVHVPGPHAMTI [A8W] reads 2.68; that for ILFSLPPKLDWDSVHVPGPHAMTI [A8K], 2.87; that for ILFSLPPDLDWDSVHVPGPHAMTI [A8D], 1.92.
The result for ILFSLPPCLDWDSVHVPGPHAMTI [A8C] reads 3.81; that for ILFSLPPRLDWDSVHVPGPHAMTI [A8R], 2.43; that for ILFSLPPQLDWDSVHVPGPHAMTI [A8Q], 3.82.
On to ILFSLPPFLDWDSVHVPGPHAMTI [A8F], for which the protein stability index was determined as 3.41.
Next, ILFSLPPHLDWDSVHVPGPHAMTI [A8H]: 2.5.
For ILFSLPPMLDWDSVHVPGPHAMTI [A8M], the protein stability index was determined as 4.44.
The result for ILFSLPPILDWDSVHVPGPHAMTI [A8I] reads 1.81; that for ILFSLPPSLDWDSVHVPGPHAMTI [A8S], 3.4; that for ILFSLPPGLDWDSVHVPGPHAMTI [A8G], 2.36.
Next, ILFSLPPTLDWDSVHVPGPHAMTI [A8T]: 3.32; IRFSLPPALDWDSVHVPGPHAMTI [L2R]: 1.7; IQFSLPPALDWDSVHVPGPHAMTI [L2Q]: 2.47.
Next, IDFSLPPALDWDSVHVPGPHAMTI [L2D]: 1.26; ICFSLPPALDWDSVHVPGPHAMTI [L2C]: 3.86.
As for IKFSLPPALDWDSVHVPGPHAMTI [L2K], the protein stability index was determined as 2.73.
Next, INFSLPPALDWDSVHVPGPHAMTI [L2N]: 2.6; IEFSLPPALDWDSVHVPGPHAMTI [L2E]: 2.29.
Next, IHFSLPPALDWDSVHVPGPHAMTI [L2H]: 2.3; IMFSLPPALDWDSVHVPGPHAMTI [L2M]: 3.37.
IWFSLPPALDWDSVHVPGPHAMTI [L2W]: the protein stability index amounted to 2.54.
Next, IFFSLPPALDWDSVHVPGPHAMTI [L2F]: 2.06; IVFSLPPALDWDSVHVPGPHAMTI [L2V]: 2.54.
Next, IIFSLPPALDWDSVHVPGPHAMTI [L2I]: 3.33; IAFSLPPALDWDSVHVPGPHAMTI [L2A]: 2.12; ITFSLPPALDWDSVHVPGPHAMTI [L2T]: 2.62.
The result for IGFSLPPALDWDSVHVPGPHAMTI [L2G] reads 1.68; that for IPFSLPPALDWDSVHVPGPHAMTI [L2P], 1.93.
With ILFSLPPALTWDSVHVPGPHAMTI [D10T], the protein stability index came out at 2.95.
Next, ILFSLPPALNWDSVHVPGPHAMTI [D10N]: 1.73; ILFSLPPALLWDSVHVPGPHAMTI [D10L]: 2.22; ILFSLPPALFWDSVHVPGPHAMTI [D10F]: 2.68.
The result for ILFSLPPALMWDSVHVPGPHAMTI [D10M] reads 3.42; that for ILFSLPPALKWDSVHVPGPHAMTI [D10K], 3.67.
Next, ILFSLPPALVWDSVHVPGPHAMTI [D10V]: 2.05; ILFSLPPALAWDSVHVPGPHAMTI [D10A]: 2.86.
As for ILFSLPPALEWDSVHVPGPHAMTI [D10E], the protein stability index was 1.63.
The result for ILFSLPPALIWDSVHVPGPHAMTI [D10I] reads 2.2; that for ILFSLPPALHWDSVHVPGPHAMTI [D10H], 3.79.
Next, ILFSLPPALGWDSVHVPGPHAMTI [D10G]: 2.28; ILFSLPPALWWDSVHVPGPHAMTI [D10W]: 1.9; ILFRLPPALDWDSVHVPGPHAMTI [S4R]: 2.6.
The result for ILFGLPPALDWDSVHVPGPHAMTI [S4G] reads 2.46; that for ILFWLPPALDWDSVHVPGPHAMTI [S4W], 2.79.
Take ILFILPPALDWDSVHVPGPHAMTI [S4I]: the protein stability index came out at 3.06.
As to ILFKLPPALDWDSVHVPGPHAMTI [S4K], the protein stability index was found to be 1.98.
Next, ILFHLPPALDWDSVHVPGPHAMTI [S4H]: 3.16; ILFALPPALDWDSVHVPGPHAMTI [S4A]: 2.31.
The result for ILFQLPPALDWDSVHVPGPHAMTI [S4Q] reads 3.13; that for ILFPLPPALDWDSVHVPGPHAMTI [S4P], 2.01.
The result for ILFLLPPALDWDSVHVPGPHAMTI [S4L] reads 2.55; that for ILFELPPALDWDSVHVPGPHAMTI [S4E], 1.75; that for ILFMLPPALDWDSVHVPGPHAMTI [S4M], 3.28.
On to ILFTLPPALDWDSVHVPGPHAMTI [S4T], for which the protein stability index was 2.17.
The result for ILFDLPPALDWDSVHVPGPHAMTI [S4D] reads 2.38; that for ILFFLPPALDWDSVHVPGPHAMTI [S4F], 2.61.
The result for ILFNLPPALDWDSVHVPGPHAMTI [S4N] reads 2.5; that for ILFVLPPALDWDSVHVPGPHAMTI [S4V], 2.49.
For NLFSLPPALDWDSVHVPGPHAMTI [I1N], the protein stability index turned out to be 1.8.
Next, QLFSLPPALDWDSVHVPGPHAMTI [I1Q]: 1.7.
Consider WLFSLPPALDWDSVHVPGPHAMTI [I1W], for which the protein stability index worked out at 1.93.
Next, SLFSLPPALDWDSVHVPGPHAMTI [I1S]: 1.99; ELFSLPPALDWDSVHVPGPHAMTI [I1E]: 1.71; DLFSLPPALDWDSVHVPGPHAMTI [I1D]: 2.17.
The result for MLFSLPPALDWDSVHVPGPHAMTI [I1M] reads 1.7; that for LLFSLPPALDWDSVHVPGPHAMTI [I1L], 1.85; that for GLFSLPPALDWDSVHVPGPHAMTI [I1G], 2.6.
The result for RLFSLPPALDWDSVHVPGPHAMTI [I1R] reads 2.17; that for TLFSLPPALDWDSVHVPGPHAMTI [I1T], 2.28; that for HLFSLPPALDWDSVHVPGPHAMTI [I1H], 1.56.
Take CLFSLPPALDWDSVHVPGPHAMTI [I1C]: the protein stability index was 1.64.
Next, YLFSLPPALDWDSVHVPGPHAMTI [I1Y]: 2.41; FLFSLPPALDWDSVHVPGPHAMTI [I1F]: 1.76; PLFSLPPALDWDSVHVPGPHAMTI [I1P]: 1.93.
The result for ALFSLPPALDWDSVHVPGPHAMTI [I1A] reads 2.03.
The result for KLFSLPPALDWDSVHVPGPHAMTI [I1K] reads 2.24.
